The values that follow come from patent US20030148958A1 (PROCTER AND GAMBLE, published 2003).

Changes are numbered by the printed parent chain. Ends that are not written are not given here.

Sequences and labels used below:
B1: SEQ ID NO 300 (peptide)
peptide: IVLSLDVPIGLLQKVIEIEKQEKEKQQATTNARILARV-NH2
B2: SEQ ID NO 287 (peptide)
peptide: ZGPPISIDLPYQLLRKMIEIEKQEKEKQQAANNARLLAR
modifications: C-terminal amide
B3: SEQ ID NO 288 (peptide)
peptide: B2 peptide
modifications: C-terminal amide
B4: SEQ ID NO 278 (peptide)
peptide: ZGPPISIDLPFQLLRKVIEIEKQEKEKQQAANNARLLDTI
modifications: C-terminal amide
B5: SEQ ID NO 295 (peptide)
peptide: B4 peptide with F11I, Q12I, D38A, T39R
modifications: C-terminal amide
B6: SEQ ID NO 286 (peptide)
peptide: B4 peptide with F11Y, D38A, T39R
modifications: C-terminal amide
B7: SEQ ID NO 284 (peptide)
peptide: B4 peptide with F11T, Q12W, A34R, R35L
modifications: C-terminal amide
B8: SEQ ID NO 292 (peptide)
peptide: B4 peptide with F11T, Q12W, V17M, D38A, T39R
modifications: C-terminal amide
B9: SEQ ID NO 290 (peptide)
peptide: B4 peptide with F11I, Q12I, V17M, D38A, T39R
modifications: C-terminal amide
B10: SEQ ID NO 298 (peptide)
peptide: B4 peptide with F11I, Q12F, V17M, R35L, D38A
modifications: C-terminal amide
B11: SEQ ID NO 281 (peptide)
peptide: B4 peptide with F11I, Q12F, D38A, T39R
modifications: C-terminal amide
B12: SEQ ID NO 289 (peptide)
peptide: B4 peptide with F11Y, Q12W, V17M, D38A, T39R
modifications: C-terminal amide
B13: SEQ ID NO 279 (peptide)
peptide: B4 peptide with D38A, T39R
modifications: not fully specified; C-terminal amide
B14: SEQ ID NO 285 (peptide)
peptide: B4 peptide with F11Q, Q12I, V17M, D38A, T39R
modifications: C-terminal amide
B15: SEQ ID NO 304 (peptide)
peptide: B4 peptide with F11H, Q12A, V17M, A34R, R35L
modifications: C-terminal amide
B16: SEQ ID NO 282 (peptide)
peptide: B4 peptide with F11I, Q12F, V17M, D38A, T39R
modifications: not fully specified; C-terminal amide
B17: SEQ ID NO 299 (peptide)
peptide: B4 peptide with F11Q, Q12I, R35L, D38A
modifications: C-terminal amide
B18: SEQ ID NO 294 (peptide)
peptide: B4 peptide with F11Q, Q12I, D38A, T39R
modifications: C-terminal amide
B19: SEQ ID NO 283 (peptide)
peptide: B4 peptide with F11Y, A34R, R35L
modifications: C-terminal amide
B20: SEQ ID NO 307 (peptide)
peptide: B4 peptide with Q12A, V17M, A34R, R35L
modifications: C-terminal amide
B21: SEQ ID NO 303 (peptide)
peptide: B4 peptide with F11A, Q12A, V17M, A34R, R35L
modifications: C-terminal amide
B22: SEQ ID NO 293 (peptide)
peptide: B4 peptide with F11Q, Q12I, A34R, R35L
modifications: C-terminal amide
B23: SEQ ID NO 302 (peptide)
peptide: B4 peptide with F11Q, Q12A, V17M, A34R, R35L
modifications: C-terminal amide
B24: SEQ ID NO 280 (peptide)
peptide: B4 peptide with F11I, Q12F, R35L, D38A
modifications: not fully specified; C-terminal amide
B25: SEQ ID NO 305 (peptide)
peptide: B4 peptide with F11V, Q12A, V17M, A34R, R35L
modifications: C-terminal amide
B26: SEQ ID NO 309 (peptide)
peptide: B4 peptide with F11Y, Q12A, V17M, A34R, R35L
modifications: C-terminal amide
B27: SEQ ID NO 308 (peptide)
peptide: B4 peptide with F11L, Q12A, V17M, A34R, R35L
modifications: C-terminal amide
B28: SEQ ID NO 297 (peptide)
peptide: B4 peptide with F11I, Q12I, A34R, R35L
modifications: C-terminal amide
B29: SEQ ID NO 306 (peptide)
peptide: B4 peptide with F11I, Q12A, V17M, A34R, R35L
modifications: C-terminal amide
B30: SEQ ID NO 301 (peptide)
peptide: B4 peptide with F11T, Q12A, V17M, A34R, R35L
modifications: C-terminal amide
B31: SEQ ID NO 291 (peptide)
peptide: B4 peptide with F11T, Q12W, D38A, T39R
modifications: C-terminal amide
B32: SEQ ID NO 296 (peptide)
peptide: HHHHHHIVLSLDVPIGLLQILLEQARARAAREQATTNARILARN-NH2
Wherever CRF1R Emax % is given: reference of the scale not given here.
Wherever CRF2R Emax % is given: reference of the scale not given here.

The first assay has as its target T1, CRF2R.
T1 sequence (Q13324 whole entry, species assumed, looked up): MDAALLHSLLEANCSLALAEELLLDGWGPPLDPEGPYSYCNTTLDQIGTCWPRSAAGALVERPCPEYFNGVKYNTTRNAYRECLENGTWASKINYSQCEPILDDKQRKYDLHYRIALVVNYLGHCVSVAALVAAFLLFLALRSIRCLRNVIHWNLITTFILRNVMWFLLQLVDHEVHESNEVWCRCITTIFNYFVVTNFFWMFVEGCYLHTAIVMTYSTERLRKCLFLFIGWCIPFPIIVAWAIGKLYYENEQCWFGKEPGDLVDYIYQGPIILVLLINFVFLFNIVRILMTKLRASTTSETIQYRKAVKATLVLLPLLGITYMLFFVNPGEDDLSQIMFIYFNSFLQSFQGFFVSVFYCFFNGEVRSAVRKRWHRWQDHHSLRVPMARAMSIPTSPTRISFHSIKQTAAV
The assay is described as follows: cell-based or functional assay.
Regarding B1, the “CRF2R EC50” value is 17.1 nM and the “CRF2R Emax %” value amounted to 100%.

For B2, the “CRF2R EC50” value amounted to 11.3 nM and the “CRF2R Emax %” value worked out at 100%.

As to B3, the “CRF2R EC50” value was found to be 14.7 nM and the “CRF2R Emax %” value was 100%.

As to B4, the “CRF2R EC50” value was 19.6 nM and the “CRF2R Emax %” value amounted to 100%.

In the case of B5, the “CRF2R EC50” value was determined as 55 nM and the “CRF2R Emax %” value turned out to be 67.6%.

Turning to B6, the “CRF2R EC50” value was 13.5 nM and the “CRF2R Emax %” value worked out at 92.5%.

Turning to B7, the “CRF2R EC50” value was determined as 100 nM and the “CRF2R Emax %” value stood at 100%.

Turning to B8, the “CRF2R EC50” value worked out at 100 nM and the “CRF2R Emax %” value is 86.1%.

Take B9: the “CRF2R EC50” value amounted to 100 nM and the “CRF2R Emax %” value is 100%.

As to B10, the “CRF2R EC50” value was found to be 82 nM and the “CRF2R Emax %” value was found to be 98.8%.

As for B11, the “CRF2R EC50” value worked out at 100 nM and the “CRF2R Emax %” value is 78.8%.

As to B12, the “CRF2R EC50” value amounted to 12.2 nM and the “CRF2R Emax %” value amounted to 97.3%.

With B13, the “CRF2R EC50” value is 13.1 nM and the “CRF2R Emax %” value amounted to 100%.

In the case of B14, the “CRF2R EC50” value amounted to 13.9 nM and the “CRF2R Emax %” value stood at 97.1%.

B15: the “CRF2R EC50” value was 19.3 nM and the “CRF2R Emax %” value was determined as 92.5%.

Regarding B16, the “CRF2R EC50” value worked out at 25.8 nM and the “CRF2R Emax %” value stood at 60.8%.

As for B17, the “CRF2R EC50” value was found to be 46.4 nM and the “CRF2R Emax %” value was 71.5%.

B18: the “CRF2R EC50” value amounted to 100 nM and the “CRF2R Emax %” value came to 100%.

For B19, the “CRF2R EC50” value turned out to be 10.6 nM and the “CRF2R Emax %” value is 72%.

As to B20, the “CRF2R EC50” value was determined as 5.82 nM and the “CRF2R Emax %” value is 96.5%.

Regarding B21, the “CRF2R EC50” value is 27.2 nM and the “CRF2R Emax %” value worked out at 100%.

In the case of B22, the “CRF2R EC50” value came out at 40.3 nM and the “CRF2R Emax %” value worked out at 87%.

In the case of B23, the “CRF2R EC50” value stood at 36.2 nM and the “CRF2R Emax %” value worked out at 100%.

For the molecule B24, the “CRF2R EC50” value is 100 nM and the “CRF2R Emax %” value was determined as 82.3%.

As for B25, the “CRF2R EC50” value was determined as 35.5 nM and the “CRF2R Emax %” value amounted to 95.2%.

Turning to B26, the “CRF2R EC50” value turned out to be 5.55 nM and the “CRF2R Emax %” value amounted to 99.9%.

With B27, the “CRF2R EC50” value came out at 3.3 nM and the “CRF2R Emax %” value came out at 72.8%.

As for B28, the “CRF2R EC50” value stood at 100 nM and the “CRF2R Emax %” value amounted to 88.3%.

B29: the “CRF2R EC50” value is 27.6 nM and the “CRF2R Emax %” value turned out to be 100%.

Turning to B30, the “CRF2R EC50” value is 50.5 nM and the “CRF2R Emax %” value came out at 88.4%.

Take B31: the “CRF2R EC50” value was 100 nM and the “CRF2R Emax %” value is 63.8%.

B32: the “CRF2R EC50” value came out at 6.66 nM and the “CRF2R Emax %” value is 65%.

Another assay has as its target CRF1R. The assay can be described thus: cell-based or functional assay.
As to B1, the “CRF1R EC50” value came out at 1000 nM and the “CRF1R Emax %” value was 7.95%.

Regarding B2, the “CRF1R EC50” value was determined as 1000 nM.

For B3, the “CRF1R EC50” value is 838 nM.

B4: the “CRF1R EC50” value is 1000 nM and the “CRF1R Emax %” value was found to be 48.7%.

B5: the “CRF1R EC50” value came to 1000 nM and the “CRF1R Emax %” value was determined as 5.3%.

For the molecule B6, the “CRF1R EC50” value worked out at 1000 nM and the “CRF1R Emax %” value amounted to 19.2%.

As for B7, the “CRF1R EC50” value worked out at 1000 nM and the “CRF1R Emax %” value was determined as 27.7%.

As for B8, the “CRF1R EC50” value was determined as 1000 nM and the “CRF1R Emax %” value came to 7%.

For the molecule B9, the “CRF1R EC50” value was 1000 nM and the “CRF1R Emax %” value worked out at 6.4%.

For the molecule B10, the “CRF1R EC50” value was 1000 nM and the “CRF1R Emax %” value worked out at 20.1%.

As for B11, the “CRF1R EC50” value came to 1000 nM and the “CRF1R Emax %” value was 12.2%.

For B12, the “CRF1R EC50” value was found to be 1000 nM and the “CRF1R Emax %” value turned out to be 69.5%.

B13: the “CRF1R EC50” value came out at 1000 nM and the “CRF1R Emax %” value was determined as 93%.

As for B14, the “CRF1R EC50” value came to 1000 nM and the “CRF1R Emax %” value came out at 11.1%.

For the molecule B15, the “CRF1R EC50” value stood at 116 nM and the “CRF1R Emax %” value is 100%.

With B16, the “CRF1R EC50” value turned out to be 1000 nM and the “CRF1R Emax %” value is 21.8%.

For B17, the “CRF1R EC50” value amounted to 1000 nM and the “CRF1R Emax %” value came to 10.2%.

For B18, the “CRF1R EC50” value was 1000 nM and the “CRF1R Emax %” value amounted to 13.6%.

Take B19: the “CRF1R EC50” value was found to be 635 nM and the “CRF1R Emax %” value was 100%.

On to B20, for which the “CRF1R EC50” value turned out to be 78.4 nM and the “CRF1R Emax %” value was 92.7%.

As for B21, the “CRF1R EC50” value was 582 nM and the “CRF1R Emax %” value is 100%.

As to B22, the “CRF1R EC50” value came to 520 nM and the “CRF1R Emax %” value was 95.3%.

Turning to B23, the “CRF1R EC50” value was 366 nM and the “CRF1R Emax %” value came to 100%.

Turning to B24, the “CRF1R EC50” value stood at 1000 nM and the “CRF1R Emax %” value is 11.8%.

For B25, the “CRF1R EC50” value is 1000 nM and the “CRF1R Emax %” value stood at 59.5%.

As for B26, the “CRF1R EC50” value amounted to 108 nM and the “CRF1R Emax %” value is 96.3%.

Take B27: the “CRF1R EC50” value amounted to 63.5 nM and the “CRF1R Emax %” value stood at 100%.

Take B28: the “CRF1R EC50” value stood at 1000 nM and the “CRF1R Emax %” value came to 27.2%.

For the molecule B29, the “CRF1R EC50” value came to 608 nM and the “CRF1R Emax %” value was 97.7%.

Regarding B30, the “CRF1R EC50” value came out at 690 nM and the “CRF1R Emax %” value amounted to 84.1%.

Turning to B31, the “CRF1R EC50” value is 1000 nM and the “CRF1R Emax %” value is 4.75%.

Turning to B32, the “CRF1R EC50” value was 100 nM and the “CRF1R Emax %” value came to 4%.
